The record followed here is PMC11349869.

Substrate in the data set: O=C(O)O
The experiment in a line: cells, lysate or membranes. The conditions noted are these: pH 7.5, 20 mM bis-tris propane-H2SO4, 0.5 mM glucose, 1 µM CaCl2, induced with 100 µM IPTG, labelled compound.

B1: BCT1 CmpCD fusion (GN128) (Synechococcus elongatus PCC 7942 = FACHB-805) (protein)
chain 1: CGNPPSSSGGGTSSTTQPTAAGASDLEVKTIKLGYIPIFEAAPLIIGREKGFFAKYGLDVEVSKQASWAAARDNVILGSAGGGIDGGQWQMPMPALLTEGAISNGQKVPMYVLACLSTQGNGIAVSNQLKAQNLGLKLAPNRDFILNYPQTSGRKFKASYTFPNANQDFWIRYWFAAGGIDPDKDIELLTVPSAETLQNMRNGTIDCFSTGDPWPSRIAKDDIGYQAALTGQMWPYHPEEFLALRADWVDKHPKATLALLMGLMEAQQWCDQKANRAEMAKILSGRNFFNVPVSILQPILEGQIKVGADGKDLNNFDAGPLFWKSPRGSVSYPYKGLTLWFLVESIRWGFNKQVLPDIAAAQKLNDRVTREDLWQEAAKKLGVPAADIPTGSTRGTETFFDGITYNPDSPQAYLQSLKIKRA
chain 2: MVTARETRRNGSRPSGLKKWRQKLDGILLPLAGILGFLIIWQIFSSSGATRLPGPLSLFTEERTRELLLYPFLDRGGLDKGLFWQTIASLTRVAQGFSIAAIIGISVGILVGLNRQLNAMLDPLFQFLRMIAPLAWVPIALVAFQQNQPAAIFVIFITAVWPILINTAEGVRQIPQDYNNVARVLRMSKSKYLMKVVLPAALPYIFTGLRIAIGLSWLAIIAAEIVMSGIVGIGFFIWDAYQQNYVSDIILAVIYIGAVGLLLDRFVAWLQRWILRNM
For the protein B1, the Km amounted to 120 ± 20 µM.

B2: BCT1 CmpCD fusion with tags (GM319) (Synechococcus elongatus PCC 7942 = FACHB-805) (protein)
chain 1: CGNPPSSSGGGTSSTTQPTAAGASDLEVKTIKLGYIPIFEAAPLIIGREKGFFAKYGLDVEVSKQASWAAARDNVILGSAGGGIDGGQWQMPMPALLTEGAISNGQKVPMYVLACLSTQGNGIAVSNQLKAQNLGLKLAPNRDFILNYPQTSGRKFKASYTFPNANQDFWIRYWFAAGGIDPDKDIELLTVPSAETLQNMRNGTIDCFSTGDPWPSRIAKDDIGYQAALTGQMWPYHPEEFLALRADWVDKHPKATLALLMGLMEAQQWCDQKANRAEMAKILSGRNFFNVPVSILQPILEGQIKVGADGKDLNNFDAGPLFWKSPRGSVSYPYKGLTLWFLVESIRWGFNKQVLPDIAAAQKLNDRVTREDLWQEAAKKLGVPAADIPTGSTRGTETFFDGITYNPDSPQAYLQSLKIKRA
chain 2: MVTARETRRNGSRPSGLKKWRQKLDGILLPLAGILGFLIIWQIFSSSGATRLPGPLSLFTEERTRELLLYPFLDRGGLDKGLFWQTIASLTRVAQGFSIAAIIGISVGILVGLNRQLNAMLDPLFQFLRMIAPLAWVPIALVAFQQNQPAAIFVIFITAVWPILINTAEGVRQIPQDYNNVARVLRMSKSKYLMKVVLPAALPYIFTGLRIAIGLSWLAIIAAEIVMSGIVGIGFFIWDAYQQNYVSDIILAVIYIGAVGLLLDRFVAWLQRWILRNM
In the case of B2, the Michaelis constant (Km) is 170 ± 30 µM.
